Measured values published in patent US20220057403A1.

Target: HA-tagged re-expressed version of the Qa-1b molecule (mouse)
Experiment: immunoprecipitation of Qa-1b from tumor cells, mass spectrometry of the associated peptides

percent of Qa-1b associated with the peptide (control sample): > 99%
Binder: AMAPRTLLL [Mouse Qdm Peptide]
